Results published in patent US8598320B2, “Anti-PCSK9 and methods for treating lipid and cholesterol disorders” (Merck Sharp & Dohme Corp., priority 2007, dated 2013).
“And” between values parts separate entries of the source, which are not always exact repeats. Identical values can stand only once. Marks after values point to notes of the source that are not given here.

Experiments:
[1] = molecular target: T1, PCSK9 (Homo sapiens, UniProt Q8NBP7); assay: In-cell western: inhibition of PCSK9-mediated LDLR degradation in HepG2 cells; type: cell-based; set-up: The protein was added exogenously to HepG2 cells; key to Relative level of inhibition of LDLR degradation observed: Greater number of + symbols indicates a greater level of inhibition relative to other treatments.; ++: Greater number of + symbols indicates a greater level of inhibition relative to other treatments.; +++: Greater number of + symbols indicates a greater level of inhibition relative to other treatments; details: for Relative level of inhibition of LDLR degradation observed: PCSK9 100 nM, 18 hours, LDLR normalized to β-actin
T1 sequence (Q8NBP7 153-692): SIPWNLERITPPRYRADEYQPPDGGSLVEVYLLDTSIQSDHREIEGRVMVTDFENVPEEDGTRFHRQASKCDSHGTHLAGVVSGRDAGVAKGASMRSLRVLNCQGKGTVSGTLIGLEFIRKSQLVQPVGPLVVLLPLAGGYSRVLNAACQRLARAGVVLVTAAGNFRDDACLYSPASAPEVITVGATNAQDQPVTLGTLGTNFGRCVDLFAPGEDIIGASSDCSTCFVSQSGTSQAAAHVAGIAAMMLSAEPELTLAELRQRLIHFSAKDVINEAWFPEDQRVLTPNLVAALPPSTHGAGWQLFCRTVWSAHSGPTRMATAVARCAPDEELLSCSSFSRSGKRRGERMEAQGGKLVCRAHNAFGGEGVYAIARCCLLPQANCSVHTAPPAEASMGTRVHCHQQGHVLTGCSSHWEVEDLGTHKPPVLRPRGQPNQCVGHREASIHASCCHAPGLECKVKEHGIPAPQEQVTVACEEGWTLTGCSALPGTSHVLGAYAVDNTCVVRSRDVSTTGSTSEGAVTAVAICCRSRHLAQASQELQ
Description: The 75B9, 77D10, 11B5, 22D11, 1F11/1G11 and 29C10 antibodies were evaluated in an in-cell western assay for their ability to inhibit the degradation of the LDL receptor by PCSK9 in HepG2 cells.
In-cell western was performed to quantitate anti-PCSK9 antibody inhibition of PCSK9-mediated LDLR degradation. HepG2 cells were seeded in 384-well collagen I coated plates and treated with anti-PCSK9 antibody and/or PCSK9 (100 nM) for 18 hours. Detection of LDLR and β-actin was performed according to the manufacturer's protocol (Li-Cor Biosciences; Lincoln, Nebr.) using the antibodies described above in conjunction with IRDye 800CW goat anti-rabbit (Li-Cor) and IRDye 680 goat anti-mouse (Li-Cor). The assay was read on an Odyssey infrared imaging system (Li-Cor) and the signal for LDLR protein in each well normalized to β-actin content.

[2] = molecular target: PCSK9/LDLR interaction (Homo sapiens, UniProt Q8NBP7); assay: Alphascreen binding assay: inhibition of PCSK9/LDLR interaction (Example 3)
Chain of PCSK9/LDLR interaction (Q8NBP7 153-692): as above
Chain of PCSK9/LDLR interaction (Q8NBP7 31-152 partner limits assumed): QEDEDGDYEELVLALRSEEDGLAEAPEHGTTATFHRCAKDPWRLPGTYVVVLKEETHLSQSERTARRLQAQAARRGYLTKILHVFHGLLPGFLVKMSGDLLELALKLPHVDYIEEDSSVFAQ
Text: An Amplified Luminescent Proximity Homogeneous Assay (ALPHA, Perkin-Elmer; Waltham, Mass.) capable of directly determining the interaction between PCSK9-FLAG and a putative binding partner was used to determine the effect of anti-PCSK9 antibodies on this interaction. This technique required that “donor” and “acceptor” beads be brought into proximity via protein-protein interaction, resulting in increased luminescence (Ullman et al., Proc. Nat. Acad. Sci. (1994) 91:5426-5430). In the basic assay, LDL receptor binding to PCSK9 was determined as follows: 5 μl of recombinant receptor at the appropriate concentrations was incubated with 2.5 μl PCSK9-FLAG (1.4 μg/ml, 30 min). About 2.5 μl of biotinylated anti-Flag-M2 antibody (1.8 μg/ml) was added and the mixture incubated for 1 hour. Afterward 5 μl of streptavidin donor bead and nickel chelate acceptor bead (1:1 mixture) was added and the assay incubated overnight. AlphaScreen signal (counts per second) was analyzed using an EnVision microplate reader (Perkin-Elmer). All data points were determined in triplicate. Assays were carried out at 23° C. in buffer containing 25 mM HEPES, 0.1 M NaCl, pH 7.4, 0.1% BSA. The inhibition assays were determined similarly with slight adjustments to assay volumes and protein concentrations. Briefly, 5 μl of 1.25 μg/ml of PCSK9-Flag and 1.25 μg/ml of His-tagged LDL receptor was incubated with 2.5 μl of antibody at the appropriate concentrations for 30 minutes followed by the addition of 2.5 μl of anti-Flag-BioM2 (1.8 μg/ml) and a 1 hour incubation.

[3] = molecular target: T1, PCSK9; assay: In vivo inhibition of liver LDLR degradation in mice (Western blot); set-up: host or cells: Exogenous protein injected into male C57BL/6J mice; details: for LDLR/GAPDH / LDLR (band intensity): liver, individual mice 107-110; for LDLR (band intensity): 400 μg antibody i.p., 10 μg human PCSK9 i.v.; for Mean LDLR/GAPDH: Antibody and PCSK9 group; for % Change: mean LDLR/GAPDH vs. Saline only control
Description: (§1) The ability of an anti-PCSK9 antibody (1F11/1G11) to inhibit LDL receptor degration in mice was evaluated in these assays along with the ability of the antibodies to modulate cholesterol levels.
(§2) Time-0: Male C57BL16j mice were injected, intraperitoneal, with 400 μg of anti-human PCSK9 Antibody, 1F11/1G11. • Time-2 hours: Mice were then injected, intravenously, with 10 μg of human PCSK9 Protein. • Time-4 hours: Mice were terminated and plasma and liver samples were collected. Analysis:
Protein levels of Liver LDL Receptor were determined by Western Blot. 40 μg of each liver homogenate was separated on an Invitrogen 4-12% NuPAGE gel, transferred to PVDF membrane and incubated with goat anti-mouse LDL receptor antibody (rabbit anti-GAPDH antibody was used as a control for equal loading). Membranes were then incubated with corresponding HRP-linked antibodies and visualization was accomplished with high performance chemiluminescence film. Band intensities were quantified using ImageQuant 5.2 software.
LDL receptor levels were expressed in Arbitrary Units (AU) as a ratio of LDL receptor band intensity to GAPDH band intensity. Two separate analyses of the data are presented, […]

[4] = molecular target: T1, PCSK9; assay: Plasma cholesterol in mice injected with human PCSK9; type: in vivo; set-up: host or cells: Exogenous protein injected into male C57BL/6J mice; details: Male C57BL16j mice; 400 μg antibody i.p., 10 μg human PCSK9 i.v. at 2 hours; plasma at 4 hours
Description: as §1, §2
Plasma lipoprotein profiles of individual mice (0.1 mL plasma) were determined by fast protein liquid chromatography (FPLC) with a Pharmacia Superose 6 column. FPLC fraction cholesterol levels were determined using Wako Cholesterol Enzymatic colorimetric method.

| Molecule | Relative level of inhibition of LDLR degradation observed [1] | LDLR (band intensity) ([3]; Table 7, lightest exposure of LDLR panel) | Mean LDLR/GAPDH ([3]; Table 7, lightest exposure) | % Change ([3]; Table 7, lightest exposure) | LDLR (band intensity) ([3]; Table 8, darker exposure of LDLR panel) | Mean LDLR/GAPDH ([3]; Table 8, darker exposure) | % Change ([3]; Table 8, darker exposure) | % inhibition at 450 nM of antibody ([2]; 450 nM antibody, relative to the assay with no antibody added) | Plasma total cholesterol level [4] | Inhibition of PCSK9-mediated LDL receptor degradation (in words) [1] | Inhibition of PCSK9/LDL receptor interaction (in words) [2] | LDLR/GAPDH ([3]; Table 7, lightest exposure of LDLR panel vs. GAPDH panel) | LDLR/GAPDH ([3]; Table 8, darker exposure of LDLR panel vs. lightest GAPDH panel) |
| --- | --- | --- | --- | --- | --- | --- | --- | --- | --- | --- | --- | --- | --- |
| 77D10: mouse anti-human PCSK9 antibody (IgG2b); heavy chain SEQ ID NO: 26, light chain SEQ ID NO: 30 (antibody, listed as Mus musculus, V domains shown) VH: EVQLQQSGAELVRSGASVKLSCTTSGFNIKDYYIHWVKQRPEQGLEWIGWIDPENGDTEYAPKFQGKATMTADTSSNTAYLQLSSLTSADTAVYYCNAYYRYDDGTWFPYWGQGTLVTVSA VL: DIQLTQSPASLSASVGETVTITCRASGNIHSYLAWYQQKQGKSPQFLVDNAKTLPDGVPSRFSVSGSGTQYSLKINSLQPEDFGTYYCQHFWNTPWTFGGGTKLEIKRA | ++ |  |  |  |  |  |  |  |  | inhibit PCSK9-mediated LDL receptor degradation | effectively inhibit interaction between PCSK9 and the LDL receptor |  |  |
| 22D11: anti-human PCSK9 antibody (IgG1); heavy chain SEQ ID NO: 42, light chain SEQ ID NO: 46 (antibody, listed as Mus musculus, V domains shown) VH: EVQLVDSGGGLVQPGRSLKLSCAASGFTFSNHDMAWVRQAPTKGLEWVASITPSGGTTYYRDSVEGRFTVSRDNVKSSLHLQMDSLTSEDTATYYCARQNYYDGSYYYGLYYFDYWGQGVMVTVSS VL: DVLMTQTPVSLPVSLGGQVSISCRSSQSLVYSDGNTYLHWYLQKPGQSPQLLIYRVSNRFSGVPDRFSGSGSGTDFTLKISRVEPEDLGLYYCLQSTHFPPTFGSGTKLEIKRA | + |  |  |  |  |  |  |  |  | inhibit PCSK9-mediated LDL receptor degradation | effectively inhibit interaction between PCSK9 and the LDL receptor |  |  |
| 75B9: mouse anti-human PCSK9 antibody (IgG2a); heavy chain SEQ ID NO: 18, light chain SEQ ID NO: 22 (antibody, listed as Mus musculus, V domains shown) VH: EVQLQQSGADLVKPGASVKLSCTASGFNIKDTYIHWVKQRPEQGLEWIGRIDPANGHTEYDPKFQGRATLTTDTSSNTAYLQLFSLTSEDSAVYFCARSYYGSIFAYWGQGTLVTVSA VL: QIVLTQSPAIMSASPGEKVTISCSASSSVSYLFWYQQKPGSSPKPWIFRTSYLASGVPARFSGSGSGTSFSLTISSMEAEDAATYYCHQYHTYPPTFGGGTKLEIKRA | ++ |  |  |  |  |  |  |  |  | inhibit PCSK9-mediated LDL receptor degradation | effectively inhibit interaction between PCSK9 and the LDL receptor |  |  |

Second part, led by results:

| Relative level of inhibition of LDLR degradation observed [1] | LDLR (band intensity) ([3]; Table 7, lightest exposure of LDLR panel) | Mean LDLR/GAPDH ([3]; Table 7, lightest exposure) | % Change ([3]; Table 7, lightest exposure) | LDLR (band intensity) ([3]; Table 8, darker exposure of LDLR panel) | Mean LDLR/GAPDH ([3]; Table 8, darker exposure) | % Change ([3]; Table 8, darker exposure) | % inhibition at 450 nM of antibody ([2]; 450 nM antibody, relative to the assay with no antibody added) | Plasma total cholesterol level [4] | Molecule | Inhibition of PCSK9-mediated LDL receptor degradation (in words) [1] | Inhibition of PCSK9/LDL receptor interaction (in words) [2] | LDLR/GAPDH ([3]; Table 7, lightest exposure of LDLR panel vs. GAPDH panel) | LDLR/GAPDH ([3]; Table 8, darker exposure of LDLR panel vs. lightest GAPDH panel) |
| --- | --- | --- | --- | --- | --- | --- | --- | --- | --- | --- | --- | --- | --- |
| + |  |  |  |  |  |  |  |  | 29C10: mouse anti-human PCSK9 antibody (IgG2a); heavy chain SEQ ID NO: 34, light chain SEQ ID NO: 38 (antibody, listed as Mus musculus, V domains shown) VH: EVLLQQSVAELVRPGASVRLSCTASGFNIKDTYIHWVRQRPEQGLEWFGWIDPANGYTKYAPNFQGKATLTTDTSSNTAYLHLSSLTSEDSAIYYCARGYYRYYSLDYWGQGTSVTVSS VL: DIQMTQTTSSLSASLGDRVTISCRASQDISNYLNWYQQKPDGTVKLLIYYSSRLHSGVPSRFSGRGSGTDYSLTISTLEQEDIATYFCQQGKTLPLTFGAGTKLELKRA | inhibit PCSK9-mediated LDL receptor degradation | effectively inhibit interaction between PCSK9 and the LDL receptor |  |  |
| ++ |  |  |  |  |  |  |  |  | 11B5: mouse anti-human PCSK9 antibody (IgG2a); heavy chain SEQ ID NO: 10, light chain SEQ ID NO: 14 (antibody, listed as Mus musculus, V domains shown) VH: EVQLQQSGAELVKPGASVTLSCTASGFNIKDTYMHWVNQRPEQGLVWIGRIDPANGHTEYDPKFQDKATITTDTSSNTAYLHLSSLTSGDTAVYYCARSYFGSIFAYWGQGTLVTVSA VL: QIVLTQSPAIMSASPGEKVTISCSASSSVSYLYWYQQKPGSSPKPWIFRSSHRASGVPARFSGSGSGTSYSLTISSMEAEDAATYYCHQYQSYPPTFGGGTKLEIKRA | inhibit PCSK9-mediated LDL receptor degradation | effectively inhibit interaction between PCSK9 and the LDL receptor |  |  |
| +++ | 13714 and 13766 and 12508 and 5977 | 0.235 AU | −48.0% | 19883 and 18057 and 18642 and 10669 | 0.377 AU | −35.2% | 88* % | 72.05 mg/dL | 1F11/1G11: mouse anti-human PCSK9 antibody (IgG2a); heavy chain SEQ ID NO: 50, light chain SEQ ID NO: 54 (antibody, listed as Mus musculus, V domains shown) VH: EVQLQQSGPELVKPGASVKISCKVSGYTFTDYYMNWVKQSHGKSLEWIGDINPNNGGAIYNQKFKGKATLTVDKSSSIAYMELRSLTSEDSAVYYCTSGIITEIAEDFWGQGTTLTVSS VL: DIVMTQSQKFMSTSVGDRVSVTCKASQNVGTNVVWYQQKPGQSPKALIHSASYRYSGVPDRFKGSGSGTDFTLTITNVQSEDLAGFFCQQYKTYPYTFGGGTQLEIKRA | inhibit PCSK9-mediated LDL receptor degradation | effectively inhibit interaction between PCSK9 and the LDL receptor | 0.272 AU and 0.278 AU and 0.262 AU and 0.128 AU | 0.439 AU and 0.396 AU and 0.426 AU and 0.249 AU |
